Assay results published in US20020086017, “GA binding protein and neurite derived growth factors for use in the treatment of muscular dystrophy” (published 2002).

T1: GABP-alpha (Homo sapiens, UniProt Q06546 Q06546:1-454)
T1 sequence: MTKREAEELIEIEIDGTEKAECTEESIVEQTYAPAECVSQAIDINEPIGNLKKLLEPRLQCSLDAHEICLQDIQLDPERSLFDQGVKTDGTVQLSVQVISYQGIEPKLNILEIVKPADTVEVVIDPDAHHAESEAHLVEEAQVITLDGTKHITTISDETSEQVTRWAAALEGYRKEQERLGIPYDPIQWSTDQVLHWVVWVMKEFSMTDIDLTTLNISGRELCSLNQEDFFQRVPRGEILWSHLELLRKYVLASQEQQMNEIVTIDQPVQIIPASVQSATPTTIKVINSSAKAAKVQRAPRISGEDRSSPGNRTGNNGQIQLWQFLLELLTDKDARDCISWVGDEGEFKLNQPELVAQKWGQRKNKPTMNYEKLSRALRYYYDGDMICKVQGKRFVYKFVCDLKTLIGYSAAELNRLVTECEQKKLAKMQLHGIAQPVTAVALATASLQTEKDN


Legend:
[1] = tested on: GABP-alpha + GABP-beta1 co-expressed in L6 cells (Homo sapiens); test: cell_activity; settings: luciferase reporter in L6 cells, n=24, p<0.001
GABP-beta1 = GABP-beta1 (Homo sapiens, UniProt Q06547 Q06547:2-395); test: EMSA; GABP-beta alone; 20 mM HEPES pH 7.6, 1 mM MgCl2, 40 mM KCl, on ice; settings: tags: GST fusion (pGEX); label: 32P 5'-end
GABP-beta1, sequence (Q06547 2-395, one chain of several): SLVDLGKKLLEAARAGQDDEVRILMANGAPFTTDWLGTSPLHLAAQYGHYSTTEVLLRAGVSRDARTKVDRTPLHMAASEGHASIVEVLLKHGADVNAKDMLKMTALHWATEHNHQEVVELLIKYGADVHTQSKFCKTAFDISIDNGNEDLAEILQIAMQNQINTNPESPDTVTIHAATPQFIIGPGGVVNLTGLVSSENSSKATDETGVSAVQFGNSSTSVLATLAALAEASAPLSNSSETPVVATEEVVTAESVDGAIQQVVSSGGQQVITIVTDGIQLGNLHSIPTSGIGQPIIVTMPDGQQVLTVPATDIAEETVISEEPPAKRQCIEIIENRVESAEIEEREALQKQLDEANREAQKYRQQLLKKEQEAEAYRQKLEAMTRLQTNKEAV
Description: (§1) Nuclear extracts were prepared from dishes of L6 myotubes cultured to confluence and total proteins quantified, as previously described [Ausubel F et al; Current Protocols in Molecular Biology; Wiley, N.Y., 1995]. The double stranded UtroNBox probe used was 5′ATCTTCcggaa C 3′ (SEQ ID NO: 7) (N-box underlined, ets-domain italicised and lower case) which was end-labelled with g-P³² ATP using T4 Polynucleotide kinase. Typically, radiolabelled probe (1 ng c. 10-100,000 cpm) was incubated on ice for 20 minutes with 10 μg nuclear extracts or 1 μl GST fusion proteins in a 12.5 μL reaction buffer containing 20 mM HEPES pH 7.6, 1 mM MgCl₂, 0.1 mM EGTA, 40 mM KCl, 10% Glycerol, 1 μg ssDNA. Competition with cold probe was performed with pre-incubation with 1000× excess of unlabelled UtroNBox probe. Complexes were resolved by electrophoresis at 200 V for 2 Hours on 4% Acrylamide gels in 25 mM Tris, 192 mM Glycine, 1 mM EDTA (for nuclear extracts) and 12.5 mM Tris, 96 mM Glycine, 0.5 mM EDTA (for fusion proteins) prior to autoradiographic analysis using a Storm Phosphorimager (Molecular Dynamics, Sunnyvale, Calif.).
(§2) Electrophoretic mobility shift assay was performed with the radiolabelled oligonucleotide UtroNBox probe and purified GABP-α and GABP-β fusion proteins. […]

GABP-alpha = molecular target: T1, GABP-alpha; test: EMSA; competed by 1000x unlabelled probe; 20 mM HEPES pH 7.6, 1 mM MgCl2, 40 mM KCl, on ice; settings: tags: GST fusion (pGEX); label: 32P 5'-end
Description: as §1, §2

[2] = molecular target: GABP-alpha/GABP-beta1 heterodimer (Homo sapiens, UniProt Q06546;Q06547 Q06546:1-454,Q06547:2-395); test: EMSA; enhanced relative to GABP-alpha alone, multimeric complexes; 20 mM HEPES pH 7.6, 1 mM MgCl2, 40 mM KCl, on ice; settings: tags: GST fusions (pGEX), reconstituted in vitro; label: 32P 5'-end
GABP-alpha/GABP-beta1 heterodimer, sequence (Q06547 2-395, one chain of several): as above
Description: as §1, §2

Molecule | activity [1] | binding result (GABP-beta1) | binding result (GABP-alpha) | binding result [2]
human utrophin promoter in pPUBF luciferase reporter | 238 % of control | – | – | –
UtroNBox probe (dsDNA) DNA 1: ATCTTCCGGAAC DNA 2: GTTCCGGAAGAT | – | no binding | binds | binds
